# From paper PMC4351820
# Target: hSSB1 (SSB1, single-stranded DNA binding protein 1) (human, UniProt Q9BQ15 1-211)
# Assay: EMSA
# hSSB1 (SSB1, single-stranded DNA binding protein 1), sequence (Q9BQ15 whole entry): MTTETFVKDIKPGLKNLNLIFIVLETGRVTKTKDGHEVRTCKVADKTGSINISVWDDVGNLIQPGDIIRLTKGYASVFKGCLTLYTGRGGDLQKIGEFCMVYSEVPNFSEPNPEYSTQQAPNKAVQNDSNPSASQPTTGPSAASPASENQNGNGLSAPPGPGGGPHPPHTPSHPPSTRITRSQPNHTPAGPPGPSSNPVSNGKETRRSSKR
binder,measurement,value
TTAGGGTTAGGGTTAGGGTTAGGGTTAGGG (ssDNA) [G-rich telomeric strand (TTAGGG)5],binding result,binds
